T1: Kap60ΔIBB (S. cerevisiae, UniProt Q02821 81-542)
T1 construct: Kap60/Srp1 (importin α) of S. cerevisiae lacking the N-terminal IBB domain (80 amino acids); also called purified Kap60ΔIBB; purified Kap60; source: E. coli BL21 (DE3) Rosetta Star, purified (glutathione-agarose, eluted with TEV protease)
T1 sequence (looked up): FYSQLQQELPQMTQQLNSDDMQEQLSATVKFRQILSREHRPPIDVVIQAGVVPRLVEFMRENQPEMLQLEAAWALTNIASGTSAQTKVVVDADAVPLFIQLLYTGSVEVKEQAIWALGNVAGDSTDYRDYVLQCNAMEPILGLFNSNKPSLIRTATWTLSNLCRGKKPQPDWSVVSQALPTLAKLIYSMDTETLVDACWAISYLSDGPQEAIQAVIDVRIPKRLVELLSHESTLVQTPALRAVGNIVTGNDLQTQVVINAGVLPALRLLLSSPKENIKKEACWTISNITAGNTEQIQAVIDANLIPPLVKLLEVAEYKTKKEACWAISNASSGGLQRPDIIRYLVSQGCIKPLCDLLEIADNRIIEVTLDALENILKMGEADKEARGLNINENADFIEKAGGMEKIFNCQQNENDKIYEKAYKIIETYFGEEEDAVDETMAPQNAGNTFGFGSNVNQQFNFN

T2: GST-Kap60ΔIBB (S. cerevisiae, UniProt Q02821 81-542)
T2 construct: Kap60/Srp1 (importin α) of S. cerevisiae lacking the N-terminal IBB domain (80 amino acids); GST can be removed with TEV protease; also called GST-tagged Kap60ΔIBB; source: E. coli BL21 (DE3) Rosetta Star, immobilized on glutathione-agarose beads
T2 sequence (looked up): T1 sequence (looked up)

T3: GST-Kap123 (S. cerevisiae, UniProt P40069 1-1113)
T3 construct: Kap123 (karyopherin β4) of S. cerevisiae, recombinant; also called GST-tagged Kap123; source: E. coli BL21 (DE3) Rosetta Star, immobilized on glutathione-agarose beads
T3 sequence (looked up): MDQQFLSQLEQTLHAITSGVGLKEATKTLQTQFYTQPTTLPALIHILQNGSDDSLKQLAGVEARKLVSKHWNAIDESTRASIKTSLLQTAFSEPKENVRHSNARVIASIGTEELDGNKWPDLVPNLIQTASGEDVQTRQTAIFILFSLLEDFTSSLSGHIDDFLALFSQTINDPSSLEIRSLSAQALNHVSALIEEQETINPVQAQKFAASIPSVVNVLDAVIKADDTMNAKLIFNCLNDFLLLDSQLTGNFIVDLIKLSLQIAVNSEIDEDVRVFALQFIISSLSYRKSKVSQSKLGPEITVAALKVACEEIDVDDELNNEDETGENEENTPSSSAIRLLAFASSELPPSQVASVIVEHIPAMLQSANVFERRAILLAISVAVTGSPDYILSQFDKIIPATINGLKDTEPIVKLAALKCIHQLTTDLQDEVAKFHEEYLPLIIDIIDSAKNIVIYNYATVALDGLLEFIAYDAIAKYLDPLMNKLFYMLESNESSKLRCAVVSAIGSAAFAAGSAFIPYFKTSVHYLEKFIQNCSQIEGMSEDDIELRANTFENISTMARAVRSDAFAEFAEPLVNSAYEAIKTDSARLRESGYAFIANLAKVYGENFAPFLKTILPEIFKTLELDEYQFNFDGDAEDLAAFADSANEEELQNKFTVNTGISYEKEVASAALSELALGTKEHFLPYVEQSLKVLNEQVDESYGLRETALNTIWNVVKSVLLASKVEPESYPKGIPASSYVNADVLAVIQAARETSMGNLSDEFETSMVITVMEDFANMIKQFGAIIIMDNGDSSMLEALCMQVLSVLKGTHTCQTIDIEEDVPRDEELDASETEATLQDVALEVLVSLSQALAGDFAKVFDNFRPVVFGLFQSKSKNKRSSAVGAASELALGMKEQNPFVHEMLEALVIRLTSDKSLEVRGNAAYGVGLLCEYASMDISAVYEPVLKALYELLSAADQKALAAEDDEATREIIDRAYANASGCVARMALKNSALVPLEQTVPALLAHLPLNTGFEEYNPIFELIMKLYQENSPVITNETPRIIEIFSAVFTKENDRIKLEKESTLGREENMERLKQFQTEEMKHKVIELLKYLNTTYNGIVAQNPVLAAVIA

B1: Flag-Yar1 (natural protein, S. cerevisiae, UniProt P46683 1-200, looked up)
chain: MGLHSEPLDQEDQDTIILDARAGDLDSLKDIFTTLVSPELLSTCKESESDSTALHMAAANGHIETVRYILETVSRANSAEDLKAFVNEVNKTGNTALHWASLNGKLDVVKLLCDEYEADPFIRNKFGHDAIFEAENSGKEEVETYFLKKYDVEPEDDEEDTQTEGKNSVQITKGTEIEQVTKEATEALREETEKLNINKD
notes: Yar1, specific chaperone of Rps3, S. cerevisiae, recombinant
B2: His6-Rps3 (natural protein, S. cerevisiae, UniProt P05750 1-240, looked up)
chain: MVALISKKRKLVADGVFYAELNEFFTRELAEEGYSGVEVRVTPTKTEVIIRATRTQDVLGENGRRINELTLLVQKRFKYAPGTIVLYAERVQDRGLSAVAQAESMKFKLLNGLAIRRAAYGVVRYVMESGAKGCEVVVSGKLRAARAKAMKFADGFLIHSGQPVNDFIDTATRHVLMRQGVLGIKVKIMRDPAKSRTGPKALPDAVTIIEPKEEEPILAPSVKDYRPAEETEAQAEPVEA
notes: ribosomal protein Rps3 of S. cerevisiae, recombinant; also called wild-type Rps3 (of the His6-Rps3/Flag-Yar1 complex); source: E. coli BL21 (DE3) Rosetta Star, purified as His6-Rps3/Flag-Yar1 complex (Ni-NTA agarose); not shown: His6, N-terminal, kept

Tests used:
Settings in all cases: both partners purified
[1] = target: B2; experiment: pull-down; His6-Rps3/Flag-Yar1 complex immobilized via His6-Rps3 on Ni-NTA agarose, incubated with increasing amounts of purified Kap60ΔIBB for 1 h at 4 °C; eluted with 300 mM imidazole (Ni-NTA eluate); Coomassie staining
[2] = target: T1, Kap60ΔIBB; experiment: as above
[3] = target: T2, GST-Kap60ΔIBB; experiment: pull-down; GST-tagged importins immobilized on glutathione-agarose beads, incubated with purified His6-Rps3/Flag-Yar1 complex or purified Flag-Yar1; 50 mM Tris pH 7.5, 150 mM NaCl, 1 mM DTT; eluted by boiling (Fig. 2b, Supplementary Fig. S2) or by TEV cleavage (Fig. 2c); Coomassie staining or Western blotting
[4] = target: T3, GST-Kap123; experiment: as above

binding result [1]	binding result [2]	binding result [3]	binding result [4]	Binder
binds				B1
	binds	binds	binds	B2

Reference: publication PMC5098186, “Nuclear import of dimerized ribosomal protein Rps3 in complex with its chaperone Yar1” (Scientific Reports, 2016)
